Here are results for 3 molecules from PMC8502904, “Glyceraldehyde-3-phosphate dehydrogenase present in extracellular vesicles from Leishmania major suppresses host TNF-alpha expression”.

Data set [1] has as its target T1, LmGAPDH (glyceraldehyde-3-phosphate dehydrogenase) (Leishmania major (strain 5ASKH), UniProt Q4Q6Z5 1-361). Nature of the data set: EMSA; concentration dependent; supershift with anti-LmGAPDH. The settings on record: protein: recombinant; tags: His tag (pET15B NdeI/BamHI, Ni-NTA); chain copies: 4; label: 3' biotin; single strand.
The target in data set [2] is T1, LmGAPDH (glyceraldehyde-3-phosphate …). Put plainly: competition; about 200-fold excess unlabeled RNA competes with labeled N1. The settings on record: protein: recombinant; tags: His tag (pET15B NdeI/BamHI, Ni-NTA); chain copies: 4; label: none; single strand.
The target is the same in data set [3]. Put plainly: EMSA; no complex also at higher LmGAPDH concentrations. The settings on record: protein: recombinant; tags: His tag (pET15B NdeI/BamHI, Ni-NTA); chain copies: 4; label: 3' biotin; single strand.

Turning to GUGAUUAUUUAUUAUUUAUUUAUUAUUUAUUUAUUUAG (ssRNA) [TNF-alpha 3'-UTR ARE38], in data set [1], the binding result is given as “binds”.

Regarding GUGAUUAUUUAUUAUUUAUUUAUUAUUUAUUUAUUUAG (ssRNA) [TNF-alpha 3'-UTR ARE38, unlabeled competitor], in data set [2], the binding result is reported as “binds”.

In the case of AGAACAUCUUGGAAAUAGCUCCCAGAAAAGCAAGCAGC (ssRNA) [TNF-alpha 5'-UTR oligonucleotide], the binding result in data set [3] was “no binding”.
